What was measured:
Experiment in all cases: BLI Octet 384RED (Example 8), Sortilin construct in solution
[1] = biological target: T1, Sortilin SORTECDBAP_tetra (tetraodon)
T1 construct: Fully tetraodon Sortilin ECD with BAP tag; also called tetraodon Sortilin
T1 chain: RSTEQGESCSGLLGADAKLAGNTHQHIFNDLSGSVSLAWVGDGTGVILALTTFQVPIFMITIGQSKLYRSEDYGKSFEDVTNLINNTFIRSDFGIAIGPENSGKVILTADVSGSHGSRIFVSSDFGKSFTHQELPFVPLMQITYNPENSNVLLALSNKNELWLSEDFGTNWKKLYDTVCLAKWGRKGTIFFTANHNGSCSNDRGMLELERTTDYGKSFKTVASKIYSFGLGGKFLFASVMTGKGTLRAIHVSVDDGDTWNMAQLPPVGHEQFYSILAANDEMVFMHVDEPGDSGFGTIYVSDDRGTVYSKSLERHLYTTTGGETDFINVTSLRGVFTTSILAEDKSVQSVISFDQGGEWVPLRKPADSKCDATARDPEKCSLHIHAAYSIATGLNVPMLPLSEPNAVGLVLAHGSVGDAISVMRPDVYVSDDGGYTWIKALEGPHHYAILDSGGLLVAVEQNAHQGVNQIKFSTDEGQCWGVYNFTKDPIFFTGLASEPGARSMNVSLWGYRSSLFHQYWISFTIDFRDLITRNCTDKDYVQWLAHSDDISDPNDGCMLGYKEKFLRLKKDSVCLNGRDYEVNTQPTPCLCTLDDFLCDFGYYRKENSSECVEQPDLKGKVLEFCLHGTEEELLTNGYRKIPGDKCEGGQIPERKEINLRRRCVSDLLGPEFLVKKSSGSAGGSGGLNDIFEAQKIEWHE
Description: (§1) Binding kinetics of anti-Sortilin HuMab antibodies to Sortilin were determined using Octet 384RED (Fortebio, Menlo Park, USA). HuMab solutions of 2 μg/ml were made by dilution in sample diluent (ForteBio, art. No. 18-5028). Prot A sensors (ForteBio, art. no. 18-0004) were prewetted with kinetics buffer (1:10 sample diluent in PBS) for at least 600 seconds. Subsequently sensors were immobilized with HuMab solution for 600 seconds. A baseline response was obtained by dipping in kinetics buffer for 120 seconds. Association of SORTECD constructs was performed during a 1000 seconds incubation. This was followed by dissociation in kinetics buffer for 100 seconds. After dissociation, sensors were regenerated (10 mM Glycine pH 1.0) and neutralized (kinetics buffer) 3 times for 5 seconds. […] A molecular weight of 76.8 kDA was used for SORTECDHis. Data was fitted with ForteBio Analysis 6.4 software, using a global full fit.

[2] = biological target: T2, Sortilin SORTECDBAP_hB01-05 (human/tetraodon chimera)
T2 construct: Shuffle construct
T2 chain: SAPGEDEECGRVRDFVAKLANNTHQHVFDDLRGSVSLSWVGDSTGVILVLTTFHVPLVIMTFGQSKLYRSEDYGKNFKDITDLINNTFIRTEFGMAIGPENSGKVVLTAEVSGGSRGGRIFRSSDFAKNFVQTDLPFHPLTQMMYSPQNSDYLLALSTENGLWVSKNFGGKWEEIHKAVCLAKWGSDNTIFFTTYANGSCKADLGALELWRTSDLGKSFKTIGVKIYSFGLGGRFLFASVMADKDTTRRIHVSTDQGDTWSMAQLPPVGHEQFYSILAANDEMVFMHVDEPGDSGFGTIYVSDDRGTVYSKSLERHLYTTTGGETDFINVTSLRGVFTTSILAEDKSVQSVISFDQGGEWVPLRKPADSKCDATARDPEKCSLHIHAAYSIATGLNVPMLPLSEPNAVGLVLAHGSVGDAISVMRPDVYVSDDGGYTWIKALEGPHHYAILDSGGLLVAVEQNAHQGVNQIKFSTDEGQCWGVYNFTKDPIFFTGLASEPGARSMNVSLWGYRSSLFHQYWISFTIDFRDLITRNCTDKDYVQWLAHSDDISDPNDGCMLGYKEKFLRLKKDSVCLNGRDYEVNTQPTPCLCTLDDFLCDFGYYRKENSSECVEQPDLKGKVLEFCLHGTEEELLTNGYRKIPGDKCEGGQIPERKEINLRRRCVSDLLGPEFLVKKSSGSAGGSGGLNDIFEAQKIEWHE
Description: as §1

[3] = biological target: T3, Sortilin SORTECDBAP_hB45678 (human/tetraodon chimera)
T3 construct: Shuffle construct
T3 chain: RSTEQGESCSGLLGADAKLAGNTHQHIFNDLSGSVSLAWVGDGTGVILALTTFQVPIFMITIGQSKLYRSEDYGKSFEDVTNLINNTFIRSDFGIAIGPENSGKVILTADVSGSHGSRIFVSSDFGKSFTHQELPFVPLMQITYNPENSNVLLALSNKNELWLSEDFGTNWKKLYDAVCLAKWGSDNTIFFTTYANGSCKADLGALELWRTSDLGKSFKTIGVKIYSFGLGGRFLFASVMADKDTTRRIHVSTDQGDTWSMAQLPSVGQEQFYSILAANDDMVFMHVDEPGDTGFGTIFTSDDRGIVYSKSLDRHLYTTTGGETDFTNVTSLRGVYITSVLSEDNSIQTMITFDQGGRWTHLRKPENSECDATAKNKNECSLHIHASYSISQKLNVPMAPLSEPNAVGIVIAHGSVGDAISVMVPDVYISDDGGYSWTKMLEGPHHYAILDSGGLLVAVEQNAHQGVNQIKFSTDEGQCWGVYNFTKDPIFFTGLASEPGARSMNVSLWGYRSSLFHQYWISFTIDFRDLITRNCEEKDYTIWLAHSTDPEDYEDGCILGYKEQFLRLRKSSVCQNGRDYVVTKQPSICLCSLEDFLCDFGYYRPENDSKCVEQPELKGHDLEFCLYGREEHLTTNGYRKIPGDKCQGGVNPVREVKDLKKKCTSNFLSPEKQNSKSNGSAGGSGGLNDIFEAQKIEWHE
Description: as §1

Measured: binding result

B1: Antibody 1F2 (antibody, V domains shown)
VH: EVQLVESGGDLVKPGGSLKLSCAASGFTFSSYGMSWVRQTPDKRLEWVAIISSGGSYTHYPDSVKGRFTISRDNAKNTLYLQMSSLKSEDTAMYYCARLCGPLCSGYWGQGTSVTVSS
VL: QAVVTQESALTTSPGETVTLTCRSSTGAVTTSNYANWVQEKPDHLFTGLIGGTNNRAPGVPARFSGSLIGDKAALTITGAQTEDEAIYFCALWYSNHFWVFGGGTKLTVLG
notes: Mouse anti-human Sortilin monoclonal antibody from hybridoma (BALB/c), purified on protein G; Assigned to the D Region; also called 1F2F4; Ab 1F2
no binding (tested: 10 µg/ml construct): all assays above

B2: Antibody 5E1 (antibody, V domains shown)
VH: EVHLVESGGDLVNPGGSLKLSCEASGFIFSIYGMSWVRQTPDKRLEWVAMISSGGIYTQYPDSVKGRFTISRDNAKNTLYLQMSGLKSEDTGTYHCTRHDDSWFAYWGQGTLVTVSA
VL: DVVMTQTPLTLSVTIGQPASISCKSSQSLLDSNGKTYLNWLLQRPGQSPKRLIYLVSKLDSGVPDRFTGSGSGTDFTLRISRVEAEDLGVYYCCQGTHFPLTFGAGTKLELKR
notes: Mouse anti-human Sortilin monoclonal antibody from hybridoma (BALB/c), purified on protein G; Assigned to the D Region; also called 5E1F6; Ab 5E1
no binding (tested: 10 µg/ml construct): all assays above
